From publication PMC4928127, “Determination of GLUT1 Oligomerization Parameters using Bioluminescent Förster Resonance Energy Transfer” (Scientific Reports, 2016)

Molecular target: T1, Nluc-GLUT1 (mouse, UniProt P17809 1-492)
T1 construct: facilitated glucose transporter GLUT1 (SLC2A1), mouse Glut1 open reading frame; BRET donor; also called GLUT1 fused to Nluc at the N-terminus; not shown: Nanoluciferase (Nluc), N-terminal, kept
T1 sequence (looked up): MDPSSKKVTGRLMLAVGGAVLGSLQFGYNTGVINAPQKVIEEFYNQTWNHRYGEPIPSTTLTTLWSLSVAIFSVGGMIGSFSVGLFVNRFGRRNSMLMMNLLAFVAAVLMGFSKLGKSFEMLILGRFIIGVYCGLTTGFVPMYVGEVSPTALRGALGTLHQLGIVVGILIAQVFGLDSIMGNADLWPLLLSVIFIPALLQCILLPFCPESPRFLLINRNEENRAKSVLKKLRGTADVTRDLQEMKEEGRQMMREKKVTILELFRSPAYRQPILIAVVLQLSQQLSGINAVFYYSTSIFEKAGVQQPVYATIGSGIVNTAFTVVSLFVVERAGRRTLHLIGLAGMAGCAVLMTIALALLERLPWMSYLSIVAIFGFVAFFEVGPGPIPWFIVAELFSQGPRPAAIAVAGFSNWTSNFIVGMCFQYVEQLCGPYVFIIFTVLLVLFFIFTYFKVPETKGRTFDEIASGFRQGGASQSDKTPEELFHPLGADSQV
Experiment: FRET or BRET; stable polyclonal 293FT/dox^GB1 cells: constitutive Nluc-GLUT1, mCherry-GLUT1 induced 48 hours with a 2-fold serial dilution of doxycycline; corrected BRET against doxycycline and against mCherry-GLUT1 level relative to endogenous GLUT1 by immunoblot
Settings: partners not purified

doxycycline concentration at which ~50% of mCherry-GLUT1 is in multimeric complexes (doxycycline EC50 of BRET): 4.69 ng/mL
B1: mCherry-GLUT1 (natural protein, mouse, UniProt P17809 1-492, looked up)
chain: T1 sequence (looked up)
notes: facilitated glucose transporter GLUT1 (SLC2A1), mouse Glut1 open reading frame; BRET acceptor; also called GLUT1 fused to mCherry at the N-terminus; not shown: mCherry, N-terminal, kept
